T1: Cynomolgus B7-H3 (cynomolgus monkey)
T1 chain: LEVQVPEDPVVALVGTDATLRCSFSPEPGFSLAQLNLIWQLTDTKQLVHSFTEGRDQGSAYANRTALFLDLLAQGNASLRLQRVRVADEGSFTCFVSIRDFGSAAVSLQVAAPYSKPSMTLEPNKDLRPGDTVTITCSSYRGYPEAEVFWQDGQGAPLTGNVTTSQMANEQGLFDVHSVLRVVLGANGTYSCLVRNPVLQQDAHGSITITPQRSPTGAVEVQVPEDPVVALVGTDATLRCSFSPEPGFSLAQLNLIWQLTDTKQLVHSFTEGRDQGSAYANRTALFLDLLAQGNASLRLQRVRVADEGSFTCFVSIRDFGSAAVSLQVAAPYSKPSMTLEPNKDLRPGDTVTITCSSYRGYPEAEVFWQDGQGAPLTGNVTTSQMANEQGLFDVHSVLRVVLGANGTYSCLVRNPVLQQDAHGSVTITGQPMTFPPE

T2: human B7-H3 on cells (human, UniProt Q5ZPR3 29-534)
T2 sequence (looked up): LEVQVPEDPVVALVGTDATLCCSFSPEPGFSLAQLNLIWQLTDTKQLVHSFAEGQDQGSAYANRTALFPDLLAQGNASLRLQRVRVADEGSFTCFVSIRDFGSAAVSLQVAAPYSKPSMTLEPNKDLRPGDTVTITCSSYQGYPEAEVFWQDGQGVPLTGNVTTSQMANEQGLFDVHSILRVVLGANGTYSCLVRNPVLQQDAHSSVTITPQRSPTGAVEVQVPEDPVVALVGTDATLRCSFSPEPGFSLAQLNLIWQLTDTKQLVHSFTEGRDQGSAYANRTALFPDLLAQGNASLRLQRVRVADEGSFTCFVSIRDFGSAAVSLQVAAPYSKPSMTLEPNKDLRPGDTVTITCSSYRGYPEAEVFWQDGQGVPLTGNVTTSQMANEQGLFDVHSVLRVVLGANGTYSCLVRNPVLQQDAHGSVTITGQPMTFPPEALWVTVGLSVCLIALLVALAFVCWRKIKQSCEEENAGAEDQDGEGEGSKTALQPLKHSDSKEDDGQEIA


What was measured:
Cynomolgus B7-H3 = target: T1, Cynomolgus B7-H3; assay: SPR (BIAcore)
human B7-H3 on cells [1] = target: T2, human B7-H3 on cells; assay: cell-based or functional assay
human B7-H3 on cells [2] = target: T2, human B7-H3 on cells; assay: cell-based or functional assay; remark: listed apart in the source
human B7-H3 on cells [3] = target: T2, human B7-H3 on cells; assay: cell-based or functional assay; remark: listed apart in the source

Row | Binder | Kd (Cynomolgus B7-H3) [nM] | koff (Cynomolgus B7-H3) [s⁻¹] | kon (Cynomolgus B7-H3) [M⁻¹ s⁻¹] | EC50 of redirected killing, 22Rv1 target cells, human T cells, E:T 5:1 (human B7-H3 on cells [1]) [µg/mL] | EC50 of redirected killing, A375 target cells, human T cells, E:T 5:1 (human B7-H3 on cells [1]) [µg/mL] | EC50 of redirected killing, A498 target cells, human T cells, E:T 5:1 (human B7-H3 on cells [1]) [µg/mL] | EC50 of redirected killing, BxPC-3 target cells, human T cells, E:T 5:1 (human B7-H3 on cells [1]) [µg/mL] | EC50 of redirected killing, DU145 target cells, human T cells, E:T 5:1 (human B7-H3 on cells [1]) [µg/mL] | EC50 of redirected killing, Detroit562 target cells, human T cells, E:T 5:1 (human B7-H3 on cells [1]) [µg/mL] | EC50 of redirected killing, JIMT-1/Luc target cells, human T cells, E:T 5:1 (human B7-H3 on cells [1]) [µg/mL] | EC50 of redirected killing, SKMES-1 target cells, human T cells, E:T 5:1 (human B7-H3 on cells [1]) [µg/mL] | EC50 of redirected killing, U87 target cells, human T cells, E:T 5:1 (human B7-H3 on cells [1]) [µg/mL] | EC50 of redirected killing, A375 target cells, E:T 1:1 (LDH assay) (human B7-H3 on cells [2]) [µg/mL] | EC50 of redirected killing, A375 target cells, E:T 5:1 (LDH assay) (human B7-H3 on cells [2]) [µg/mL] | EC50 of redirected killing, A375 target cells, E:T 10:1 (LDH assay) (human B7-H3 on cells [2]) [µg/mL] | EC50 of redirected killing, A498 target cells, E:T 1:1 (LDH assay) (human B7-H3 on cells [2]) [µg/mL] | EC50 of redirected killing, A498 target cells, E:T 5:1 (LDH assay) (human B7-H3 on cells [2]) [µg/mL] | EC50 of redirected killing, A498 target cells, E:T 10:1 (LDH assay) (human B7-H3 on cells [2]) [µg/mL] | potency of redirected cell killing against DART-A (target cell lines including A498, THP-1 and DU145) (human B7-H3 on cells [3]) [fold]
1 | DART-A (bispecific antibody, Three-chain Fc diabody, one B7-H3 site and one CD3 site; chains are disulfide bonded; also called B7-H3×CD3 bispecific monovalent Fc diabody) chain 1: DIQLTQSPSFLSASVGDRVTITCKASQNVDTNVAWYQQKPGKAPKALIYSASYRYSGVPSRFSGSGSGTDFTLTISSLQPEDFATYYCQQYNNYPFTFGQGTKLEIKGGGSGGGGEVQLVESGGGLVQPGGSLRLSCAASGFTFSTYAMNWVRQAPGKGLEWVGRIRSKYNNYATYYADSVKDRFTISRDDSKNSLYLQMNSLKTEDTAVYYCVRHGNFGNSYVSWFAYWGQGTLVTVSSGGCGGGEVAALEKEVAALEKEVAALEKEVAALEKGGGDKTHTCPPCPAPEAAGGPSVFLFPPKPKDTLMISRTPEVTCVVVDVSHEDPEVKFNWYVDGVEVHNAKTKPREEQYNSTYRVVSVLTVLHQDWLNGKEYKCKVSNKALPAPIEKTISKAKGQPREPQVYTLPPSREEMTKNQVSLWCLVKGFYPSDIAVEWESNGQPENNYKTTPPVLDSDGSFFLYSKLTVDKSRWQQGNVFSCSVMHEALHNHYTQKSLSLSPGK chain 2: QAVVTQEPSLTVSPGGTVTLTCRSSTGAVTTSNYANWVQQKPGQAPRGLIGGTNKRAPWTPARFSGSLLGGKAALTITGAQAEDEADYYCALWYSNLWVFGGGTKLTVLGGGGSGGGGEVQLVESGGGLVQPGGSLRLSCAASGFTFSSFGMHWVRQAPGKGLEWVAYISSDSSAIYYADTVKGRFTISRDNAKNSLYLQMNSLRDEDTAVYYCGRGRENIYYGSRLDYWGQGTTVTVSSGGCGGGKVAALKEKVAALKEKVAALKEKVAALKE chain 3: not shown | 30.2 | 0.0051 | 170000 | 0.212 | 0.097 | 0.064 | 0.196 | 0.084 | 1.28 | 0.047 | 0.319 | 0.099 | 0.352 | 0.243 | 0.166 | 0.129 | 0.0425 | 0.0272 | –
2 | DART-B (bispecific antibody, Three-chain Fc diabody; also called B7-H3×CD3 bispecific monovalent Fc diabody) chain 1: DIQMTQSPSSLSASVGDRVTITCRASQDISNYLNWYQQKPGKAPKLLIYYTSRLHSGVPSRFSGSGSGTDFTLTISSLQPEDIATYYCQQGNTLPPTFGGGTKLEIKGGGSGGGGEVQLVESGGGLVQPGGSLRLSCAASGFTFSTYAMNWVRQAPGKGLEWVGRIRSKYNNYATYYADSVKDRFTISRDDSKNSLYLQMNSLKTEDTAVYYCVRHGNFGNSYVSWFAYWGQGTLVTVSSGGCGGGEVAALEKEVAALEKEVAALEKEVAALEKGGGDKTHTCPPCPAPEAAGGPSVFLFPPKPKDTLMISRTPEVTCVVVDVSHEDPEVKFNWYVDGVEVHNAKTKPREEQYNSTYRVVSVLTVLHQDWLNGKEYKCKVSNKALPAPIEKTISKAKGQPREPQVYTLPPSREEMTKNQVSLWCLVKGFYPSDIAVEWESNGQPENNYKTTPPVLDSDGSFFLYSKLTVDKSRWQQGNVFSCSVMHEALHNHYTQKSLSLSPGK chain 2: QAVVTQEPSLTVSPGGTVTLTCRSSTGAVTTSNYANWVQQKPGQAPRGLIGGTNKRAPWTPARFSGSLLGGKAALTITGAQAEDEADYYCALWYSNLWVFGGGTKLTVLGGGGSGGGGQVQLVQSGAEVKKPGASVKVSCKASGYTFTSYWMQWVRQAPGQGLEWMGTIYPGDGDTRYTQKFKGRVTITADKSTSTAYMELSSLRSEDTAVYYCARRGIPRLWYFDVWGQGTTVTVSSGGCGGGKVAALKEKVAALKEKVAALKEKVAALKE chain 3: not shown | – | – | – | – | – | – | – | – | – | – | – | – | – | – | – | – | – | – | ~6
